The record followed here is patent US20040258687A1.

This assay addresses guanylyl cyclase C (GC-C), as expressed on T84 human colon carcinoma cells (human) (UniProt P25092). The experiment in a line: cell-based or functional assay.

Chain of guanylyl cyclase C (GC-C), as expressed on T84 human colon carcinoma cells (human) (P25092 24-1073): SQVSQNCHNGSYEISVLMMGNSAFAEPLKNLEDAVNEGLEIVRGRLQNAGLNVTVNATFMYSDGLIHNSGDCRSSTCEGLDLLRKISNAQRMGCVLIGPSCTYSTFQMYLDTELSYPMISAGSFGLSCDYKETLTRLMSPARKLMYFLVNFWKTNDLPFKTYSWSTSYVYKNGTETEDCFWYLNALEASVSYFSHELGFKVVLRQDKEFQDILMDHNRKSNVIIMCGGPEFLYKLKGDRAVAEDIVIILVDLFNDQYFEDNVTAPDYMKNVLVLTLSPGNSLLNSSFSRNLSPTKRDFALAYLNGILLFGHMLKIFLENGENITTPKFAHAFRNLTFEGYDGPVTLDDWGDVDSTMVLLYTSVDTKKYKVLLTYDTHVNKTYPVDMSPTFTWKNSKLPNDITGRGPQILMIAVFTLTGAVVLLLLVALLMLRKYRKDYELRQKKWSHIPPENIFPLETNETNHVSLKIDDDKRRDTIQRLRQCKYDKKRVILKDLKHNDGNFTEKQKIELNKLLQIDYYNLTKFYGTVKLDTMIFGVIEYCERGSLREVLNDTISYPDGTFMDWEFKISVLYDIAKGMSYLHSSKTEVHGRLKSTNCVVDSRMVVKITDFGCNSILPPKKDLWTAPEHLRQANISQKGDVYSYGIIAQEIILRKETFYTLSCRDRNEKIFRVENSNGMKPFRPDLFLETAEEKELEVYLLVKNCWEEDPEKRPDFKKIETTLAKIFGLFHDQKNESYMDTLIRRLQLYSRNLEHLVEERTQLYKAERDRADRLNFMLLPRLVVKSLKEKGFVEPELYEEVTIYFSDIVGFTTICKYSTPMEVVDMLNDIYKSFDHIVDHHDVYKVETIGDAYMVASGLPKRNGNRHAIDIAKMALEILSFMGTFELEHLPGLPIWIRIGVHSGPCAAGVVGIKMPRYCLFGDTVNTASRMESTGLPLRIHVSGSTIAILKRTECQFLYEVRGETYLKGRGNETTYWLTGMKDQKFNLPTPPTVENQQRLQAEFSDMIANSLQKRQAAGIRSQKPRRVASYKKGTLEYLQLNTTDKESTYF

“E. coli heat-stable enterotoxin (ST) (peptide)” returned an EC50 for ST (cytostatic effect, in vitro TJU experiments) of 10 nM.
